# Measured values as given in patent US20220174981A1, “PROLINE TOLERANT TRIPEPTIDYL PEPTIDASES AND USES THEREOF” (DuPont Nutrition Biosciences APS, priority 2014, published 2022).
# Columns and labels:
# H-Ala-Ala-Ala-pNA = experiment: Exopeptidase Broad-Specificity Assay (EBSA) with H-Ala-Ala-Ala-pNA; pH and temperature profile; assay type: biochemical; details: H-Ala-Ala-Ala-pNA; 20 mM Na-glycine pH 2.0-4.0 or Na-acetate pH 4.0-5.5
# Procedure: 10 μL of the chromogenic peptide solution (10 mM H-Ala-Ala-Ala-pNA dissolved in dimethyl sulfoxide (DMSO); MW=387.82; Bachem, Switzerland) were added to 130 μl Na-acetate (20 mM, adjusted to pH 4.0 with acetic acid) in a microtiter plate and heated for 5 minutes at 40° C. 10 μL of appropriately diluted enzyme was added and the absorption was measured in a MTP reader (Versa max, Molecular Devices, Denmark) at 405 nm. One katal of proteolytic activity was defined as the amount of enzyme required to release 1 mole of p-nitroaniline per second.
# The chromogenic peptide H-Ala-Ala-Ala-pNA (MW=387.82; Bachem, Switzerland) was used to determine the activity of proline tolerant tripeptidyl peptidase in the samples produced as described above. The assay was conducted as follows, 10 μL of the chromogenic peptide solution (10 mM dissolved in dimethyl sulfoxide; DMSO) were added to 130 μl Na-acetate (20 mM, adjusted to pH 4.0 with acetic acid) in a microtiter plate and heated for 5 minutes at 40° C. 10 μL of appropriately diluted enzyme was added and the absorption was measured in an MTP reader (Versa max, Molecular Devices, Denmark) at 405 nm. One katal of proteolytic activity was defined as the amount of enzyme required to release 1 mole of p-nitroaniline per second.
# The proline tolerant tripeptidyl peptidase assay described with H-Ala-Ala-Ala-pNA substrate above with modification of using the buffers 20 mM Na-glycine (pH 2.0, 2.5, 3.0, 3.5 and 4.0) or 20 mM Na-acetate buffer (pH 4.0, 4.5 and 5.5) was used to determine the pH profile of proline tolerant tripeptidyl peptidase TRI083 (FIG. 2) and TRI045 (FIG. 24)..
# The proline tolerant tripeptidyl peptidase assay described above was used at temperatures 25, 50, 55, 60, 65, 70, 75, 80 and 85° C.
# For proline tolerant tripeptidyl peptidase the chromogenic peptide H-Ala-Ala-Ala-pNA was used. The assay was conducted as follows, 27.5 μL of appropriately diluted enzyme was added to 200 μl McIlvaine buffer (20 mM, pH 4.0). After incubation at 50° C. for 5 min, 12.5 μL of the chromogenic peptide solution (5 mg/mL dissolved in dimethyl sulfoxide (DMSO); Sigma-Aldrich, Denmark) were added to the reaction mixture. The reaction was terminated by adding 50 μL of 0.5 M trichloroacetic acid (TCA; Sigma-Aldrich, Denmark). After centrifugation (15,000×g, 5 min), 240 μL of the solution were transferred to a microtiter plate (MTP; Kisker-biotech, Germany) and the absorption was measured in an MTP reader (Molecular Devices, Denmark) at 405 nm. One katal of proteolytic activity was defined as the amount of enzyme required to release 1 mol of p-nitroaniline per second.
# [1] = Stability of TRI045 in the presence of pepsin; assay type: biochemical, Swine; details: 500 units pepsin/mL, pH3.5, 40° C., 60 min
# Procedure: Pepsin solution: Swine pepsin from Sigma (P7000, 674 Sigma units/mg, www.sigma.com) was used in this example and prepared in MilliQ water at 10000 Sigma unit/ml at 10000 Sigma unit/mL
# Pre-incubation mixture contained: 2.5 μl TRI045 sample, 95 μl GAT buffer (50 mM glycine-50 mM acetic acid-50 mM Tris, pH3.5), 5 μl pepsin in milliQ water (10000 Sigma unit/ml) (final pepsin unit concentration: 500 Sigma unit/ml reaction mixture) in a half bottom area 96 well Corning MTP. For control, the pre-incubation mixture contained 5 μl water instead of 5 μl pepsin. The mixture was incubated at 40° C. for 60 min and then kept on ice. For assaying the residual activity, the assay mixture contained the pre-incubation mixture 5 μl, 0.1M acetic acid-sodium acetate (pH4.0) 85 μl, 5 μl H-Ala-Ala-Phe-pNA (2.5 mg/ml) from BACHEM.com (L-1095.0250). The 410 nm reading was followed in a microplate reader every 0.5 min at 30° C. N=2.
# H-Ala-Ala-Phe-pNA = experiment: Effect of pH on TRI045 activity with H-Ala-Ala-Phe-pNA; assay type: biochemical
# Procedure: The tripeptide substrate H-Ala-Ala-Phe-pNA (AAF-pNA from BACHEM.com, L-1095.0250) for sedolisin was prepared at 2.5 mg/ml in DMSO. The reaction was prepared by mixing 8.5 μl AAF-pNA, 7 μl DMSO, 32 μl water and 50 μl buffer with pH4.14-6.57, and 0.8 μl or 1.5 ul TRI045. The reaction was started at 30° C. by the addition of the enzyme TRI045. The initial reaction rate was recorded using a microplate reader at every 0.5 min interval at 410 nm in 96 well plate.
# corn soy feed = experiment: TRI045 plus pepsin and pancreatin on corn soy feed, OPA and BCA assays; assay type: biochemical; details: TRI045 1000 ppm, swine pepsin and pancreatin present
# Procedure: The in vitro reaction system contained 140 μl 10% (w/v) corn soy feed slurry (14 mg corn soy feed), 10 μl TRI045 in 50m M MES-NaOH pH 6.0, 10 μl swine pepsin (1.14 U/μL in water). The reaction was incubated with shaking at 40° C. for 45 min and subsequently 34 μl swine pancreatin (0.4636 mg/mL in 1M Na-bicarbonate) were added and further incubated for additional 60 min. After incubation, the 96-well plate was centrifuged and supernatants were used for residual TRI045 activity assay and for OPA and BCA assays (see below).
# Reference: P. M. Nielsen, D. Petersen and C. Dambmann. Improved Method for Determining Food Protein Degree of Hydrolysis. Journal of Food Science. 66 (2001) 642-646.
# For OPA assay the following procedure was carried out.
# To quantify the protein concentrations of each protease samples, the Pierce BCA Protein Assay Reagent Kit (Thermo Scientific, cat no. 23228) was used. The TRI045 sample was not purified before quantification. The Pierce BCA Protein Assay Kit is a detergent-compatible formulation based on bicinchoninic acid (BCA) for colorimetric detection and quantification of total proteins. This method combines the well-known reduction of Cu^2+ to Cu^1+ by protein in an alkaline medium with the highly sensitive and selective colorimetric detection of the cuprous cat ion (Cu^+1) using a unique reagent containing bicinchoninic acid. […]
# AAF-pNA = experiment: Residual activity on AAF-pNA after in vitro digestion with pepsin and pancreatin; assay type: biochemical
# Procedure: In order to test the stability of TRI045 under the in vitro assay conditions described above (incubation in the presence of pepsin at pH3 for 45 min at 40° C. and subsequently in the presence of pancreatin for 60 min at 40° C.). The residual activity of TRI045 was subsequently assayed. The reaction mixture contained 50 μl buffer 0.1M HAC-NaAC (pH5.0), 10 μl the supernatant, and 5 μl AAF-pNA (5 mg/ml in DMSO). The reaction rate was followed at 410 nm and 30° C. every 30 seconds using a microplate reader. As a control, a commercial protease at the same concentration of 1000 ppm was used.
molecule,measurement,setting,value
"TRI045: tripeptidyl peptidase having pre-pro sequence SEQ ID No. 98 and mature protein SEQ ID No. 99 (protein, listed as Arthroderma benhamiae) CRSLVTTACLRELYGLGDRVTQARDDNRIGVSGFLEEYAQYRDLELFLSRFEPSAKGFNFSEGLIAGGKNTQGGPGSSTEANLDMQYVVGLSHKAKVTYYSTAGRGPLIPDLSQPSQASNNNEPYLEQLRYLVKLPKNQLPSVLTTSYGDTEQSLPASYTKATCDLFAQLGTMGVSVIFSSGDTGPGSSCQTNDGKNATRFNPIYPASCPFVTSIGGTVGTGPERAVSFSSGGFSDRFPRPQYQDNAVKDYLKILGNQWSGLFDPNGRAFPDIAAQGSNYAVYDKGRMTGVSGTSASAPAMAAIIAQLNDFRLAKGSPVLGFLNPWIYSKGFSGFTDIVDGGSRGCTGYDIYSGLKAKKVPYASWNATKGWDPVTGFGTPNFQALTKVLP",Optimum pH,H-Ala-Ala-Ala-pNA,4.0
same,residual activity,[1],over 90%
same,activity at around pH4 and pH6.5,"H-Ala-Ala-Phe-pNA; AAF-pNA, 30° C.",around 50%
same,Relative activity with pH 5.01 as 100%,"H-Ala-Ala-Phe-pNA; pH 4.1, 0.1M HAC-NaAC",59.4%
same,Relative activity with pH 5.01 as 100%,"H-Ala-Ala-Phe-pNA; pH 4.6, 0.1M HAC-NaAC",81.7%
same,Relative activity with pH 5.01 as 100%,"H-Ala-Ala-Phe-pNA; pH 5.0, 0.1M HAC-NaAC",100.0%
same,Relative activity with pH 5.01 as 100%,"H-Ala-Ala-Phe-pNA; pH 5.6, 0.1M HAC-NaAC",80.7%
same,Relative activity with pH 5.01 as 100%,"H-Ala-Ala-Phe-pNA; pH 6.0, 0.1M Mes-NaOH",72.2%
same,Relative activity with pH 5.01 as 100%,"H-Ala-Ala-Phe-pNA; pH 6.6, 0.1M Mes-NaOH",48.5%
same,increase of release of free amino groups from corn soy feed (OPA value),corn soy feed,9%
same,increase of protein solubility,corn soy feed; BCA,5%
same,time stable to pepsin and pancreatin,AAF-pNA; 40° C.,at least 100 minutes
same,reaction rate,"AAF-pNA; 1000 ppm, after pepsin 45 min and pancreatin 60 min at 40° C., control 4.3 mOD/min",19.3 mOD/min
same,stability to pepsin and pancreatin in the presence of corn soy feed,"AAF-pNA; 105 min at 40° C., pH range of 3 to 7",stable to pepsin and pancreatin
same,residual activity on AAF-pNA relative to the commercial protease,AAF-pNA; after subtraction of the control (4.3 mOD/min),2.2 times
